Target: LexA-DP-1 (pLEX(HIS).DP-1): complete bacterial LexA protein fused to DP-1 from residue 59 to 410 (bacterial; murine) (UniProt Q08639)

For “GAD-E2F-5 (pGAD.E2F-5): entire murine E2F-5 as a hybrid with the activation domain of the yeast GAL4 protein (768-881) (from UniProt P04386)”, the transcriptional activity of the E2F site reporter p4x WT CYC1 in yeast was > 6 fold.
